The experiment addresses T1, human GIP receptor (human, UniProt P48546 22-466).
T1 sequence (looked up): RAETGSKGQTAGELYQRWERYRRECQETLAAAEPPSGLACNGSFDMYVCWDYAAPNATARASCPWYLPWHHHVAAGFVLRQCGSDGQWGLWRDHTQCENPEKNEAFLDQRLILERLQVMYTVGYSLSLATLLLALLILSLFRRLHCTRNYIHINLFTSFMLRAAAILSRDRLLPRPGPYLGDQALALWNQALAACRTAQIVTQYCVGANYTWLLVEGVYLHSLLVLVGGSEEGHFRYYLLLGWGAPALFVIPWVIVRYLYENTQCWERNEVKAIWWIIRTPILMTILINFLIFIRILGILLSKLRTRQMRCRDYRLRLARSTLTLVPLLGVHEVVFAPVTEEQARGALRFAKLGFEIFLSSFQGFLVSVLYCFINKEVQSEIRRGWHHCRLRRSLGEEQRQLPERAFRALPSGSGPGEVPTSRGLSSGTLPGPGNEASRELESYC
The experiment can be described thus: cell-based or functional assay.

Non-standard residues stand in square brackets, D forms with d. No end group written: not given here. *: point of attachment. C16 diacid = O=C(O)CCCCCCCCCCCCCCC(=O)*; Nle = CCCC[C@H](N)C(=O)O; Aib = CC(C)(N)C(=O)O

B1: AT674 (peptide)
peptide: EGTFISEYSI[Aib][Nle]EKIK(C16 diacid)QQEFVEWLLAQKPSSGAPPPS-OH
modifications: N-terminus assumed
SMILES: CCCC[C@H](NC(=O)C(C)(C)NC(=O)[C@@H](NC(=O)[C@H](CO)NC(=O)[C@H](Cc1ccc(O)cc1)NC(=O)[C@H](CCC(=O)O)NC(=O)[C@H](CO)NC(=O)[C@@H](NC(=O)[C@H](Cc1ccccc1)NC(=O)[C@@H](NC(=O)CNC(=O)[C@@H](N)CCC(=O)O)[C@@H](C)O)[C@@H](C)CC)[C@@H](C)CC)C(=O)N[C@@H](CCC(=O)O)C(=O)N[C@@H](CCCCN)C(=O)N[C@H](C(=O)N[C@@H](CCCCNC(=O)CCCCCCCCCCCCCCC(=O)O)C(=O)N[C@@H](CCC(N)=O)C(=O)N[C@@H](CCC(N)=O)C(=O)N[C@@H](CCC(=O)O)C(=O)N[C@@H](Cc1ccccc1)C(=O)N[C@H](C(=O)N[C@@H](CCC(=O)O)C(=O)N[C@@H](Cc1c[nH]c2ccccc12)C(=O)N[C@@H](CC(C)C)C(=O)N[C@@H](CC(C)C)C(=O)N[C@@H](C)C(=O)N[C@@H](CCC(N)=O)C(=O)N[C@@H](CCCCN)C(=O)N1CCC[C@H]1C(=O)N[C@@H](CO)C(=O)N[C@@H](CO)C(=O)NCC(=O)N[C@@H](C)C(=O)N1CCC[C@H]1C(=O)N1CCC[C@H]1C(=O)N1CCC[C@H]1C(=O)N[C@@H](CO)C(=O)O)C(C)C)[C@@H](C)CC
As for B1, the “cAMP antagonism % inhib (CisBio assay)” value is 93%; the “cAMP antagonism nM (IC50, CisBio assay)” value is 0.447 nM; the “cAMP antagonism pIC50 (CisBio assay)” value came out at 9.4.

B2: AT623 (peptide)
peptide: EGTFISDYSIAMDKIK(C16 diacid)QQDFVEWLLAQAPSSGAPPPS-OH
modifications: N-terminus assumed
SMILES: CC[C@H](C)[C@H](NC(=O)[C@H](CO)NC(=O)[C@H](Cc1ccc(O)cc1)NC(=O)[C@H](CC(=O)O)NC(=O)[C@H](CO)NC(=O)[C@@H](NC(=O)[C@H](Cc1ccccc1)NC(=O)[C@@H](NC(=O)CNC(=O)[C@@H](N)CCC(=O)O)[C@@H](C)O)[C@@H](C)CC)C(=O)N[C@@H](C)C(=O)N[C@@H](CCSC)C(=O)N[C@@H](CC(=O)O)C(=O)N[C@@H](CCCCN)C(=O)N[C@H](C(=O)N[C@@H](CCCCNC(=O)CCCCCCCCCCCCCCC(=O)O)C(=O)N[C@@H](CCC(N)=O)C(=O)N[C@@H](CCC(N)=O)C(=O)N[C@@H](CC(=O)O)C(=O)N[C@@H](Cc1ccccc1)C(=O)N[C@H](C(=O)N[C@@H](CCC(=O)O)C(=O)N[C@@H](Cc1c[nH]c2ccccc12)C(=O)N[C@@H](CC(C)C)C(=O)N[C@@H](CC(C)C)C(=O)N[C@@H](C)C(=O)N[C@@H](CCC(N)=O)C(=O)N[C@@H](C)C(=O)N1CCC[C@H]1C(=O)N[C@@H](CO)C(=O)N[C@@H](CO)C(=O)NCC(=O)N[C@@H](C)C(=O)N1CCC[C@H]1C(=O)N1CCC[C@H]1C(=O)N1CCC[C@H]1C(=O)N[C@@H](CO)C(=O)O)C(C)C)[C@@H](C)CC
For the molecule B2, the “cAMP antagonism % inhib (CisBio assay)” value was found to be 98%; the “cAMP antagonism nM (IC50, CisBio assay)” value is 3.16 nM; the “cAMP antagonism pIC50 (CisBio assay)” value is 8.5.

B3: AT617 (peptide)
peptide: EGTFISDYSIAMDKIK(C16 diacid)QQDFVEWLLAQKPSSGAPPPS-OH
modifications: N-terminus assumed
SMILES: CC[C@H](C)[C@H](NC(=O)[C@H](CO)NC(=O)[C@H](Cc1ccc(O)cc1)NC(=O)[C@H](CC(=O)O)NC(=O)[C@H](CO)NC(=O)[C@@H](NC(=O)[C@H](Cc1ccccc1)NC(=O)[C@@H](NC(=O)CNC(=O)[C@@H](N)CCC(=O)O)[C@@H](C)O)[C@@H](C)CC)C(=O)N[C@@H](C)C(=O)N[C@@H](CCSC)C(=O)N[C@@H](CC(=O)O)C(=O)N[C@@H](CCCCN)C(=O)N[C@H](C(=O)N[C@@H](CCCCNC(=O)CCCCCCCCCCCCCCC(=O)O)C(=O)N[C@@H](CCC(N)=O)C(=O)N[C@@H](CCC(N)=O)C(=O)N[C@@H](CC(=O)O)C(=O)N[C@@H](Cc1ccccc1)C(=O)N[C@H](C(=O)N[C@@H](CCC(=O)O)C(=O)N[C@@H](Cc1c[nH]c2ccccc12)C(=O)N[C@@H](CC(C)C)C(=O)N[C@@H](CC(C)C)C(=O)N[C@@H](C)C(=O)N[C@@H](CCC(N)=O)C(=O)N[C@@H](CCCCN)C(=O)N1CCC[C@H]1C(=O)N[C@@H](CO)C(=O)N[C@@H](CO)C(=O)NCC(=O)N[C@@H](C)C(=O)N1CCC[C@H]1C(=O)N1CCC[C@H]1C(=O)N1CCC[C@H]1C(=O)N[C@@H](CO)C(=O)O)C(C)C)[C@@H](C)CC
For the molecule B3, the “cAMP antagonism % inhib (CisBio assay)” value worked out at 91%; the “cAMP antagonism nM (IC50, CisBio assay)” value worked out at 0.794 nM; the “cAMP antagonism pIC50 (CisBio assay)” value was found to be 9.1.

B4: AT668 (peptide)
peptide: EGTFISDYSIALDKIK(C16 diacid)QQDFVEWLLAQKPSSGAPPPS-OH
modifications: N-terminus assumed
SMILES: CC[C@H](C)[C@H](NC(=O)[C@H](CO)NC(=O)[C@H](Cc1ccc(O)cc1)NC(=O)[C@H](CC(=O)O)NC(=O)[C@H](CO)NC(=O)[C@@H](NC(=O)[C@H](Cc1ccccc1)NC(=O)[C@@H](NC(=O)CNC(=O)[C@@H](N)CCC(=O)O)[C@@H](C)O)[C@@H](C)CC)C(=O)N[C@@H](C)C(=O)N[C@@H](CC(C)C)C(=O)N[C@@H](CC(=O)O)C(=O)N[C@@H](CCCCN)C(=O)N[C@H](C(=O)N[C@@H](CCCCNC(=O)CCCCCCCCCCCCCCC(=O)O)C(=O)N[C@@H](CCC(N)=O)C(=O)N[C@@H](CCC(N)=O)C(=O)N[C@@H](CC(=O)O)C(=O)N[C@@H](Cc1ccccc1)C(=O)N[C@H](C(=O)N[C@@H](CCC(=O)O)C(=O)N[C@@H](Cc1c[nH]c2ccccc12)C(=O)N[C@@H](CC(C)C)C(=O)N[C@@H](CC(C)C)C(=O)N[C@@H](C)C(=O)N[C@@H](CCC(N)=O)C(=O)N[C@@H](CCCCN)C(=O)N1CCC[C@H]1C(=O)N[C@@H](CO)C(=O)N[C@@H](CO)C(=O)NCC(=O)N[C@@H](C)C(=O)N1CCC[C@H]1C(=O)N1CCC[C@H]1C(=O)N1CCC[C@H]1C(=O)N[C@@H](CO)C(=O)O)C(C)C)[C@@H](C)CC
On to B4, for which the “cAMP antagonism % inhib (CisBio assay)” value stood at 92%; the “cAMP antagonism nM (IC50, CisBio assay)” value stood at 0.944 nM; the “cAMP antagonism pIC50 (CisBio assay)” value was found to be 9.

B5: AT673 (peptide)
peptide: EGTFISEYSI[Aib]LEKIK(C16 diacid)QQEFVEWLLAQKPSSGAPPPS-OH
modifications: N-terminus assumed
SMILES: CC[C@H](C)[C@H](NC(=O)[C@H](CCCCN)NC(=O)[C@H](CCC(=O)O)NC(=O)[C@H](CC(C)C)NC(=O)C(C)(C)NC(=O)[C@@H](NC(=O)[C@H](CO)NC(=O)[C@H](Cc1ccc(O)cc1)NC(=O)[C@H](CCC(=O)O)NC(=O)[C@H](CO)NC(=O)[C@@H](NC(=O)[C@H](Cc1ccccc1)NC(=O)[C@@H](NC(=O)CNC(=O)[C@@H](N)CCC(=O)O)[C@@H](C)O)[C@@H](C)CC)[C@@H](C)CC)C(=O)N[C@@H](CCCCNC(=O)CCCCCCCCCCCCCCC(=O)O)C(=O)N[C@@H](CCC(N)=O)C(=O)N[C@@H](CCC(N)=O)C(=O)N[C@@H](CCC(=O)O)C(=O)N[C@@H](Cc1ccccc1)C(=O)N[C@H](C(=O)N[C@@H](CCC(=O)O)C(=O)N[C@@H](Cc1c[nH]c2ccccc12)C(=O)N[C@@H](CC(C)C)C(=O)N[C@@H](CC(C)C)C(=O)N[C@@H](C)C(=O)N[C@@H](CCC(N)=O)C(=O)N[C@@H](CCCCN)C(=O)N1CCC[C@H]1C(=O)N[C@@H](CO)C(=O)N[C@@H](CO)C(=O)NCC(=O)N[C@@H](C)C(=O)N1CCC[C@H]1C(=O)N1CCC[C@H]1C(=O)N1CCC[C@H]1C(=O)N[C@@H](CO)C(=O)O)C(C)C
On to B5, for which the “cAMP antagonism % inhib (CisBio assay)” value stood at 94%; the “cAMP antagonism nM (IC50, CisBio assay)” value was found to be 0.136 nM; the “cAMP antagonism pIC50 (CisBio assay)” value came to 9.9.

B6: AT665 (peptide)
peptide: EGTFISDYSI[Aib]MDKIK(C16 diacid)QQDFVEWLLAQKPSSGAPPPS-OH
Take B6: the “cAMP antagonism % inhib (CisBio assay)” value stood at 88%; the “cAMP antagonism nM (IC50, CisBio assay)” value was 0.15 nM; the “cAMP antagonism pIC50 (CisBio assay)” value stood at 9.8.

B7: AT666 (peptide)
peptide: EGTFISDYSI[Aib]LDKIK(C16 diacid)QQDFVEWLLAQKPSSGAPPPS-OH
With B7, the “cAMP antagonism % inhib (CisBio assay)” value came out at 89%; the “cAMP antagonism nM (IC50, CisBio assay)” value was determined as 0.266 nM; the “cAMP antagonism pIC50 (CisBio assay)” value was 9.6.

B8: AT667 (peptide)
peptide: EGTFISDYSI[Aib][Nle]DKIK(C16 diacid)QQDFVEWLLAQKPSSGAPPPS-OH
As to B8, the “cAMP antagonism % inhib (CisBio assay)” value is 86%; the “cAMP antagonism nM (IC50, CisBio assay)” value came out at 0.736 nM; the “cAMP antagonism pIC50 (CisBio assay)” value came to 9.1.

(Values after patent US20230416330A1, “Optimized GIP Peptide Analogues” (Antag Therapeutics ApS, priority 2019, published 2023).)
